Numbering of substitutions follows the chain as printed. In names and notes the source's numbering stands.
T1: EsCas13d, nuclease-dead (Eubacterium siraeum, UniProt B0MS50, R295A;H300A;R849A;H854A)
T1 sequence: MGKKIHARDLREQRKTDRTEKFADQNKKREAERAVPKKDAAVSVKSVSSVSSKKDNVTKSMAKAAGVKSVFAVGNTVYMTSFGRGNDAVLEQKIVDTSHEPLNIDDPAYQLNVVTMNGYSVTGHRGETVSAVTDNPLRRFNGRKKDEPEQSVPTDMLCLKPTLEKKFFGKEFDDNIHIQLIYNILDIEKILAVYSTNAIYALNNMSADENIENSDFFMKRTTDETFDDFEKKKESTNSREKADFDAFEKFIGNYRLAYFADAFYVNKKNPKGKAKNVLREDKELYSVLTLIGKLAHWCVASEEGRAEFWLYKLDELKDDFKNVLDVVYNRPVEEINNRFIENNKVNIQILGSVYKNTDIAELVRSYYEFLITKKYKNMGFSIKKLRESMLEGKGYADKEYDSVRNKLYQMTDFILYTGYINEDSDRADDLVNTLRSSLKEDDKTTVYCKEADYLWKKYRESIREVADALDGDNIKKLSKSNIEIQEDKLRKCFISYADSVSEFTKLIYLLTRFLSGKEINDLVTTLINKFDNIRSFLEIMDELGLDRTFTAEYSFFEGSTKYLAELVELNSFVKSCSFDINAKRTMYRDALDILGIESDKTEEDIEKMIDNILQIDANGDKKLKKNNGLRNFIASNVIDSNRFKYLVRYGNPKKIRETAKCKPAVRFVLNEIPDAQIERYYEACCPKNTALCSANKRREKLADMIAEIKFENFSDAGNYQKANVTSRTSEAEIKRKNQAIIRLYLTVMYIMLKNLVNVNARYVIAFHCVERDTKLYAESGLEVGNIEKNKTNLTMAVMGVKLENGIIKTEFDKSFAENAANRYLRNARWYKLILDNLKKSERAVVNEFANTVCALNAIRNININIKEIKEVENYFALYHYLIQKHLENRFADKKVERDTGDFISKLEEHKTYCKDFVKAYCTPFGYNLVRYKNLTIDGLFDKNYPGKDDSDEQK

B1: target 1 MT 5'PFS GGC 3'PFS AGC (mixed)
RNA 1: CACCCGUGCAAAAAUGCAGGGGUCUAAAACUGAGCGGAUAACCUCUCUAUGG
RNA 2: GGGAAUGGAUCCACAUCUACGAAUUCGGCCCAUAGAGAGGUUAUCCGCUCAAGCAGAUCGGAAGAGCACACGU
B2: target 1 MT 5'PFS AUG 3'PFS AUG (mixed)
RNA 1: B1 RNA 1
RNA 2: B1 RNA 2 with G27A, G28U, C29G, G53U, C54G
B3: target 1 MT 5'PFS UGC 3'PFS AUC (mixed)
RNA 1: B1 RNA 1
RNA 2: B1 RNA 2 with G27U, G53U
B4: target 1 MT 5'PFS CUG 3'PFS AGG (mixed)
RNA 1: B1 RNA 1
RNA 2: B1 RNA 2 with G27C, G28U, C29G, C54G
B5: target 1 MT 5'PFS GAG 3'PFS UCC (mixed)
RNA 1: B1 RNA 1
RNA 2: B1 RNA 2 with G28A, C29G, A52U, G53C
B6: target 1 insC 3' of 12,insG 3' of 4 (mixed)
RNA 1: B1 RNA 1
RNA 2: GGGAAUGGAUCCACAUCUACGAAUUCGUACCAUAGAGAGGCUUAUCCGCGUCACCGAGAUCGGAAGAGCACACGU
B7: target 1 MT 5'PFS GAG 3'PFS UCA (mixed)
RNA 1: B1 RNA 1
RNA 2: B1 RNA 2 with G28A, C29G, A52U, G53C, C54A
B8: target 1 MT 5'PFS AUG 3'PFS AUU (mixed)
RNA 1: B1 RNA 1
RNA 2: B1 RNA 2 with G27A, G28U, C29G, G53U, C54U
B9: target 1 MT 5'PFS ACG 3'PFS AUC (mixed)
RNA 1: B1 RNA 1
RNA 2: B1 RNA 2 with G27A, G28C, C29G, G53U
B10: target 1 MT 5'PFS ACG 3'PFS AUG (mixed)
RNA 1: B1 RNA 1
RNA 2: B1 RNA 2 with G27A, G28C, C29G, G53U, C54G
B11: target 1 U8C,U19C (mixed)
RNA 1: B1 RNA 1
RNA 2: B1 RNA 2 with G28U, C29A, U33C, U44C, A52C, G53C, C54G
B12: target 1 MT 5'PFS CCU 3'PFS CAA (mixed)
RNA 1: B1 RNA 1
RNA 2: B1 RNA 2 with G27C, G28C, C29U, A52C, G53A, C54A
B13: target 1 MT 5'PFS ACG 3'PFS AUA (mixed)
RNA 1: B1 RNA 1
RNA 2: B1 RNA 2 with G27A, G28C, C29G, G53U, C54A
B14: target 1 insC 3' of 12,insC 3' of 12 (mixed)
RNA 1: B1 RNA 1
RNA 2: B6 RNA 2 with U42C, A44U, U45A, C46U, G48C, C49G, G50C
B15: target 1 MT 5'PFS UGC 3'PFS AUU (mixed)
RNA 1: B1 RNA 1
RNA 2: B1 RNA 2 with G27U, G53U, C54U
B16: target 1 MT 5'PFS UGC 3'PFS AUA (mixed)
RNA 1: B1 RNA 1
RNA 2: B1 RNA 2 with G27U, G53U, C54A
B17: target 1 MT 5'PFS GAG 3'PFS UCG (mixed)
RNA 1: B1 RNA 1
RNA 2: B1 RNA 2 with G28A, C29G, A52U, G53C, C54G
B18: target 1 MT 5'PFS CCU 3'PFS CAU (mixed)
RNA 1: B1 RNA 1
RNA 2: B1 RNA 2 with G27C, G28C, C29U, A52C, G53A, C54U
B19: target 1 MT 5'PFS CCC 3'PFS AUG (mixed)
RNA 1: B1 RNA 1
RNA 2: B1 RNA 2 with G27C, G28C, G53U, C54G
B20: target 1 MT 5'PFS CCU 3'PFS CAG (mixed)
RNA 1: B1 RNA 1
RNA 2: B1 RNA 2 with G27C, G28C, C29U, A52C, G53A, C54G
B21: target 1 MT 5'PFS CCU 3'PFS CAC (mixed)
RNA 1: B1 RNA 1
RNA 2: B1 RNA 2 with G27C, G28C, C29U, A52C, G53A
B22: target 1 MT 5'PFS CAA 3'PFS ACC (mixed)
RNA 1: B1 RNA 1
RNA 2: B1 RNA 2 with G27C, G28A, C29A, G53C
B23: target 1 MT 5'PFS GAG 3'PFS UCU (mixed)
RNA 1: B1 RNA 1
RNA 2: B1 RNA 2 with G28A, C29G, A52U, G53C, C54U
B24: target 1 MT 5'PFS CCC 3'PFS AUU (mixed)
RNA 1: B1 RNA 1
RNA 2: B1 RNA 2 with G27C, G28C, G53U, C54U
B25: target 1 MT 5'PFS UGC 3'PFS AUG (mixed)
RNA 1: B1 RNA 1
RNA 2: B1 RNA 2 with G27U, G53U, C54G
B26: target 2 MT 5'PFS CGG 3'PFS CAC (mixed)
RNA 1: CACCCGUGCAAAAUUGCAGGGGUCUAAAACCUUCUCCAAAUUGUUUCAUCCU
RNA 2: GGGAAUGGAUCCACAUCUACGAAUUCCGGAGGAUGAAACAAUUUGGAGAAGCACAGAUCGGAAGAGCACACGU
B27: target 2 MT 5'PFS CGG 3'PFS CAA (mixed)
RNA 1: B26 RNA 1
RNA 2: B26 RNA 2 with C54A
B28: target 2 MT 5'PFS AGG 3'PFS AUC (mixed)
RNA 1: B26 RNA 1
RNA 2: B26 RNA 2 with C27A, C52A, A53U
B29: target 2 MT 5'PFS UAG 3'PFS AAC (mixed)
RNA 1: B26 RNA 1
RNA 2: B26 RNA 2 with C27U, G28A, C52A
B30: target 2 MT 5'PFS UCG 3'PFS UCA (mixed)
RNA 1: B26 RNA 1
RNA 2: B26 RNA 2 with C27U, G28C, C52U, A53C, C54A
B31: target 2 MT 5'PFS CGG 3'PFS CAU (mixed)
RNA 1: B26 RNA 1
RNA 2: B26 RNA 2 with C54U
B32: target 2 MT 5'PFS UAG 3'PFS AAU (mixed)
RNA 1: B26 RNA 1
RNA 2: B26 RNA 2 with C27U, G28A, C52A, C54U
B33: target 2 MT 5'PFS UGA 3'PFS AUA (mixed)
RNA 1: B26 RNA 1
RNA 2: B26 RNA 2 with C27U, G29A, C52A, A53U, C54A
B34: target 2 MT 5'PFS UGA 3'PFS AUU (mixed)
RNA 1: B26 RNA 1
RNA 2: B26 RNA 2 with C27U, G29A, C52A, A53U, C54U
B35: target 2 MT 5'PFS CGG 3'PFS CAG (mixed)
RNA 1: B26 RNA 1
RNA 2: B26 RNA 2 with C54G
B36: target 2 MT 5'PFS AUU 3'PFS CUA (mixed)
RNA 1: B26 RNA 1
RNA 2: B26 RNA 2 with C27A, G28U, G29U, A53U, C54A
B37: target 2 MT 5'PFS UGA 3'PFS AUC (mixed)
RNA 1: B26 RNA 1
RNA 2: B26 RNA 2 with C27U, G29A, C52A, A53U
B38: target 2 MT 5'PFS UAG 3'PFS AAG (mixed)
RNA 1: B26 RNA 1
RNA 2: B26 RNA 2 with C27U, G28A, C52A, C54G
B39: target 2 MT 5'PFS AUU 3'PFS CUC (mixed)
RNA 1: B26 RNA 1
RNA 2: B26 RNA 2 with C27A, G28U, G29U, A53U

Molecular target: T1, EsCas13d, nuclease-dead
Experiment: crRNA (strand 1, pre-loaded); Mg2+; 40 mM Tris-HCl pH 7.5, 150 mM NaCl, 6 mM MgCl2, 1 mM DTT, 0.1% Tween-20, 0.2 mg/ml BSA; 25 C; 10 min per concentration, then washed
Settings: tags: His6-TwinStrep-SUMO cleaved; N-terminal SNAP kept (SNAP-Surface 488); label: 3' end held by stalled T7 RNA polymerase

| Binder | Kd [nM] |
| --- | --- |
| B1 | 9.95 ± 1.75 |
| B2 | 49 ± 18 |
| B3 | 52.5 ± 23 |
| B4 | 66.5 ± 33 |
| B5 | 55.5 ± 26.5 |
| B6 | 5.7 ± 0.5 |
| B7 | ~47.5 |
| B8 | 11.4 ± 2.5 |
| B9 | ~24.5 |
| B10 | 45 ± 18.5 |
| B11 | 41.1 ± 2.3 |
| B12 | 55 ± 19 |
| B13 | 16.5 ± 6.5 |
| B14 | 18.3 ± 1.3 |
| B15 | 18.6 ± 5.1 |
| B16 | 16.5 ± 6 |
| B17 | 42 ± 16 |
| B18 | 13.5 ± 5.5 |
| B19 | 31 ± 14 |
| B20 | ~26 |

| Binder | Kd [nM] |
| --- | --- |
| B21 | 15.2 ± 5.15 |
| B22 | 14.8 ± 5.05 |
| B23 | 29 ± 9 |
| B24 | ~8 |
| B25 | ~55.5 |
| B26 | 6.8 ± 1.3 |
| B27 | 3.4 ± 0.5 |
| B28 | 5.5 ± 0.6 |
| B29 | 3.6 ± 0.4 |
| B30 | 21 ± 5 |
| B31 | 4.4 ± 0.5 |
| B32 | 3.8 ± 0.5 |
| B33 | 7.1 ± 1.4 |
| B34 | 7.5 ± 1.3 |
| B35 | 4.3 ± 0.6 |
| B36 | 14 ± 4 |
| B37 | 8.7 ± 1.1 |
| B38 | 2.87 ± 0.28 |
| B39 | 16.6 ± 3.1 |
